Values quoted from earlier work as cited in article PMC5081098.

Target: CCL21 (Homo sapiens) (UniProt O00585)
Chain of UniProt O00585 (O00585 24-134): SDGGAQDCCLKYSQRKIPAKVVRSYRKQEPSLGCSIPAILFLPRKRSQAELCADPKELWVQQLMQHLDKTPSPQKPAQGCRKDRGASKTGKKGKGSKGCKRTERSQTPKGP

Substance: podoplanin (from UniProt Q86YL7)
- Kd: 70 nM
